{
  "source": "paper PMC10037447",
  "target": "F-type ATP synthase from bovine heart mitochondria (Bos taurus (purified from bovine heart))",
  "assay": "native gel or EMSA; Blue-Native PAGE (3-12% Bis-Tris mini-gels) of F-type ATP synthase re-extracted with 0.5% LMNG from LAiR proteoliposomes (bovine heart lipids) at time points over 5 days of storage on ice at 4 °C",
  "note": "“And” between values parts separate entries of the source, which are not always exact repeats. Equal values may be shown once.",
  "data": [
    {"substance": "F-type ATP synthase from bovine heart mitochondria (complex)", "values": [
      {"measurement": "stoichiometry N", "value": "2 and 4"}
    ]}
  ]
}
